In patent USRE46585 (LABORATOIRE FRANCAIS DU FRACTIONNEMENT ET DES …, dated 2017):

What was measured:
[1] = molecular target: T1, FcRn-p3 fusion protein (human, UniProt P55899 24-297; P61769 21-119); test: phage ELISA pH6
T1 construct: baculovirus expressed; coated on ELISA wells; not shown: amino terminal part of bacteriophage p3 protein and CVDE protein

[2] = molecular target: T1, FcRn-p3 fusion protein; test: phage ELISA pH6 (est.)

| Ratio/Fc-H [1] [fold] | Ratio/FWT [2] [fold] | Binder |
| --- | --- | --- |
| 1.3 | 4.3 | T4A_34 (other, EU numbering) CPPCPAPELLGGPSVFLFPPKPKDTLMISRTPEVTCVVEDVSHEDPEVKFNWYVDGVEVHNAKTKPREEQYNSTYRVVSVLTVLHQDWLNGKEYKCKVSNKALPAPIEKTISKAKGQPREPQVYTLPPSRDELTKNQVSLTCLVKGFYPSDIVVEWESNGQPENNYKTTPPVLDSDGSFFLYSKLTVDKSRWKQGNVFSCSVMHEALHNHYTQKSLSLSPGK |
| 2 | 6.3 | T4A_43 (other, EU numbering) CPPCPAPELLGGPSVFLFPPKPKDTLMISRTPEVTCVVVDVSHEDPEVKFNWYVDGVEVHNAKTKPREEQYNSTYRVVSVLTVLHQDWLNGKEYKCKVSNKALPAPVEKTISKAKGQPREPQVYTLPPSRDELTKNQVSLTCLVRGFYPSDIVVEWESNGQPENNYKTTPPVLDSDGSFFLYSKLTVDKSRWQQGNVFSCSVMHEALHSHYTQKSLSLSPGK |
| 2.5 | 8 | T4A_41 (other, EU numbering) CPPCPAPELLGGPSVRLFPPKPKDTLMISRTPEVTCVVEDVSHEDPEVKFNWYVDGVEVHNAKTKPREEQYNSTYRVVSVLPVLHQDWLNGKEYKCKVSNKALPAPIEKTISKAKGQPREPQVYTLPPSRDELTKNQVSLTCLVKGFYPSDIVVEWESNGQPENNYKTTPPVLDSDGSFFLYSKLTVDKSRWQQGNVFSCSVMHEALHNHYTQKSLSLSPGK |
| 1.4 | 4.4 | T4A_39 (other, EU numbering) CPPCPAPELLGGPSVFLFPPKPKDTLMISRTPEVTCVVEDVSHEDPEVKFNWYVDGVEVHNAKTKPREEQYNSTYRVVSVLTVLHQDWLNGKEYKCKVSNKALPAPIEKTISKAKGQPREPQVYTLPPSRDELTKNQVSLTCLVKGFYPSDIVVEWESNGQPENNYKTTPLVLDSDGSFFLYSKLTVDKSRWQQGNVFSCSVMHEALHNHYTQKSLSLSPGK |
| 3.8 | 12 | T4A_44 (other, EU numbering) GPPCPAPELLGGPSVFLFPPKPKDTLMISRTPEVTCVVEDVSHEDPEVKFNWYVDGVEVHNAKTKPREEQYNSTYRVVSVLTVLHQDWLNGKEYKCKVSNKALPAPIEKTISKAKGQPREPQVYTLPPSRDELTKNQVSLTCLVKGFYPSDIVVEWESNGQPENNYKTTPPVLDSDGSLFLYSKLTVDKSRWQQGNVFSCSVMHEALHNHYTQKSLSLSPGK |
| 2.7 | 8.7 | T4A_45 (other, EU numbering) CPPCPAPELLGGPSVFLFPPKPKDTLMISRTPEVTCVVEDVSHEDPEVKFNWYVDGVEVHNAKTKPREEQYNSTYRVVSVLTVPHQDWLNGKEYKCKVSNKALPAPIEKTISKAKGQPREPQVYTLPPSRDELTKNQVSLTCLVKGFYPSDIAVEWESNGQPENNYKTTPLVLDSDGSFFLYSKLTVDKSRWQQGNVFSCSVMHEALHSHYTQKSLSLSPGK |

The remaining lines, values behind:

| Binder | Ratio/Fc-H [1] [fold] | Ratio/FWT [2] [fold] |
| --- | --- | --- |
| T3A_41 (other, EU numbering) CPPCPAPELLGGPSVFLFPPKPKDTLMISRTPEVTCVVEDVSHEDPEVKFNWYVDGVEVHNAKTKPREEQYNSTYRVVSVLPVLHQDWLNGKEYKCKVSNKALPAPIEKTISKAKGQPREPQVYTLPPSRDELTKNQVSLTCLVKGFYPSDIVVEWESNGQPENNYKTTPPVLDSDGSFFLYSKLTVDKSRWQQGNVFSCSVMHEALHNHYTQKSLSLSPGK | 2.3 | 7.2 |
| T4A_32 (other, EU numbering) CPPCPAPELLGGPSVFLFPPKPKDTLMISRTPEVTCVVEDVSHEDPEVKFNWYVDGVEVHNAKTKPREEQYNSTYRVVSVLTVLHQDWLNGKEYKCKVSNKALPAPIEKTISKAKGQPREPQVYTLPPSRDELTKNQVSLTCLVKGFYPSDIVVEWESNGQPENNYKTTPPVLDSDGSFFLYSKLTVDKSRWQQGNVFSCSVMHEALRNHYTQKSLSLSPGK | 2.3 | 7.4 |
| T4A_18 (other, EU numbering) CPPCPAPELLGGPSVFLFPPKPKDTLMISRTPEVTCVVVDVSHEDPEVKFNWYVDGVEVHNAKTKPREEQYNSTYRVVSVLTVLHQDWLDGKEYKCKVSNKALPAPIEKTISKAKGRPREPQVYTLPPSRDELTKNQVSLTCLVKGFYPSDIAVEWVSNGQPENNYKTTPPVLDSDGSFFLYSKLTVDKSRWQQGNVFSCSVMHEALHYHYTQKSLSLSPGK | 3 | 9.7 |
| T4A_26 (other, EU numbering) CPPCPAPELLGGPSVFLFPPKPKDTLMISRTPEVTCVVEDVSHEDPEVKFNWYVDGVEVHNAKTKPREEQYNSTYRVVSVLPVLHQDWLNGKEYKCKVSNKALPAPIEKTISKAKGQPREPQVYTLPPSRDELTKNQVSLTCLVKGFYPSDIVVEWGSNGRPENNYKTTPPVLDSDGSFFLYSKLTVDKSRWQQGNVFSCSVMHEALHNHYTQKSLSLSPGK | 3.6 | 11.5 |
| T4A_31 (other, EU numbering) CPPCTAPELLGGPSVLLFPPKPKDTLMISRTPEVTCVVEDVSHEDPEVKFNWYVDGVEVHNAKTKPREEQYNSTYRVVSVLPVLHQDWLNGKEYKCKVSNKALPAPIEKTISKAKGQPREPQVYTLPPSRDELTKNQVSLTCLVKGFYPSDIVVEWESNGQPENNYKTTPPVLDSDGSFFLYSKLTVDKSRWQQGNVFSCSVMHEALHNHYTQKSLSLSPGK | 3.7 | 11.7 |
| T3A_43 (other, EU numbering) CPPCPAPELLGGPSVFLFPPKPKDTLMISRTPEVTCVVEDVSHEDPEVKFNWYVDGVEVHNAKTKPREEQYNSTYRVVSVLTVLHQDWLNGKEYKCKVSNKALPAPIEKTISKAKGQPRGPQVYTLPPSRDELTKNQVSLTCLVKGFYPSDIVVEWESNGQPENNYKTTPPVLDSDGSFFLYSKLTVDKSRWQQGNVFSCSVMHEALHNHYTQKSLSLSPGK | 1.4 | 4.5 |
| T4A_19 (other, EU numbering) CPPCPAPELLGGPSVFLFPPKPKDTLMISRTPEVTCVVVDVSHEDPEVKFNWYVDGVEVHNAKTKPREEQYNSTYRVVSVLPVLHQDWLNGKEYKCKVSNKALPAPIEKTISKAKGQPREPQVYTLPPSRDELTKNQVSLTCLVKGFYPSDIVVEWESNGQPENNYKTTPPVLDSDGSFFLYSKLTVDKSRWQQGNVFSCSVMHEALHSHYTQKSLSLSPGK | 3.6 | 11.4 |
| T4A_04 (other, EU numbering) CPPCPAPELLGGPSVFLFPPKPKDTLMISRTPEVTCVVVDVSHEDPEVKFNWYVDGVEVHNAKTKPREEQYNSTYRVVSVLTVLHQDWLDGKEYKCKVSNKALPVPIEKTISKAKGQPREPQVYTLPPSRDELTKNQVSLTCLVKGFYPSDIAVEWVSNGQPENNYKTTPPVLDSDGSFFLYSKLTVDKSRWQQGNVFSCSVMHEALHYHYTQKSLSLSPGK | 3 | 9.7 |
| T3A_47 (other, EU numbering) CPPCPAPELLGGPSVFLFPPKPKDTLMISRTPEVTCVVVDVSHEDPEVKFNWYVDGVEVHNAKTKPREEQYNSTYRVVSVLPVLHQDWLNGKEYKCKVSNKALPAPIEKTISKAKGQPREPQVYTLPPSRDELTKNQVSLTCLVKGFYPSDITVEWESNGQPENNYKTTPPMLDSDGSFFLYSKLTVDKSRWQQGNVFSCSVMHEALHNHYTQKSLSLSPGK | 2 | 6.3 |
